Assay results reported in patent US20220396627A1 (VERSEAU THERAPEUTICS, published 2022).
One block for each binder: values may come before it.

Assays:
[1] = biological target: Human Siglec-9-Fc (recombinant human Siglec-9 extracellular domain Q18-G348 fused to human IgG1 Fc) (human); assay: ELISA: plate coated with 1 ug/mL human Siglec-9-Fc, antibody at 100 nM, HRP anti-mouse Fc secondary, RLU
Protocol: ELISA plates (384-well) were coated with 1 ug/mL indicated SIGLEC protein at room temperature. The plates were washed with PBS with 0.1% Tween®20, pH 7.4 and blocked with TBS containing 3% BSA. The plates were washed and incubated with anti-SIGLEC9 antibody diluted to 100 nM. Plates were washed and incubated with HRP-coupled anti-mouse Fc secondary antibody. Plates underwent a final wash and were incubated with HRP substrate. Readout was performed using a POLARstar Omega Microplate Reader (BMG LAPTECH).

[2] = biological target: T1, Recombinant human Siglec-9-His (human, UniProt Q9Y336 18-348); assay: BLI (Octet Red384), chimeric antibody on AHC sensor, His-tagged analyte 100-1.56 nM, 1:1 global fit
T1 construct: The entry begins at QTSK... like the Q18-G348 extracellular domain of the Fc fusion and ends in GSG and a His tag
Protocol: (§1) The binding affinity of chimeric antibodies was determined by biolayer interferometry (BLI), using a ForteBio Octet Red384 system. All samples were prepared in black 96-well flat bottom plates (Greiner, Cat. #655209) diluted in kinetics buffer (lx DPBS (Gibco, Cat. #LS14190250) containing 0.1% bovine serum albumin, 0.05% sodium azide, and 0.02% Tween®20). Anti-SIGLEC-9 antibodies (ligand) were diluted to a final concentration of 10 ug/mL and captured on anti-human IgG Fc capture (AHC) biosensors (ForteBio, Cat. #18-5060). […] Biosensors were rehydrated prior to the assay in kinetics buffer for 10 minutes and then equilibrated in kinetics buffer for 60 seconds. Antibody was then immobilized for 300 seconds followed by a 120 second baseline wash in fresh kinetics buffer, 300 second analyte association, and 300 second dissociation in the same buffer wells as the baseline wash step. All assay steps occurred at 30° C. with an acquisition rate of 5.0 Hz
(§2) Processing parameters included double reference subtraction, with human IgG4 used as an isotype control for reference sensor subtraction and immobilized ligand in kinetics buffer with no analyte used for reference sample subtraction. Y-axis data was aligned to the average baseline step for the last 5 seconds and all steps were inter-step corrected to the start of the dissociation step. High frequency noise was removed using Savitzky-Golay filtering and final fitting was a 1:1 global binding model to both association and dissociation.

[3] = biological target: T2, Recombinant human Siglec-7-His (human, UniProt Q9Y286 19-353, limits assumed); assay: as above
Protocol: as §1, §2

[4] = biological target: T3, Recombinant cyno Siglec-9-His (cynomolgus macaque); assay: as above
T3 construct: also called Cynomolgus Monkey SIGLEC9-HIS
Protocol: as §1, §2

[5] = biological target: T2, Recombinant human Siglec-7-His; assay: BLI (Octet Red384), chimeric antibody on AHC sensor, His-tagged analyte
Protocol: as §1, §2

[6] = biological target: T3, Recombinant cyno Siglec-9-His; assay: as above
Protocol: as §1, §2

T1 sequence (Q9Y336 other isoform, or with tags, fused parts or gaps limits assumed): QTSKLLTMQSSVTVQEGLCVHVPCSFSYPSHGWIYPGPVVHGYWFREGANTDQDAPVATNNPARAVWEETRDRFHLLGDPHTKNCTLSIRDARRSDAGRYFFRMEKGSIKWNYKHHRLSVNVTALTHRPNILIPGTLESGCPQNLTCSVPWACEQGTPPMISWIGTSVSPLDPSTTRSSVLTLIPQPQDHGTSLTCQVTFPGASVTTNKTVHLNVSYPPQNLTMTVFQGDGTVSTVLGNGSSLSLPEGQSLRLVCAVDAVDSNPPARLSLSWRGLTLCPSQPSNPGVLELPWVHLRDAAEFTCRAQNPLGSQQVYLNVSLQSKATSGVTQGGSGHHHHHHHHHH
T2 sequence (Q9Y286 19-353 limits assumed): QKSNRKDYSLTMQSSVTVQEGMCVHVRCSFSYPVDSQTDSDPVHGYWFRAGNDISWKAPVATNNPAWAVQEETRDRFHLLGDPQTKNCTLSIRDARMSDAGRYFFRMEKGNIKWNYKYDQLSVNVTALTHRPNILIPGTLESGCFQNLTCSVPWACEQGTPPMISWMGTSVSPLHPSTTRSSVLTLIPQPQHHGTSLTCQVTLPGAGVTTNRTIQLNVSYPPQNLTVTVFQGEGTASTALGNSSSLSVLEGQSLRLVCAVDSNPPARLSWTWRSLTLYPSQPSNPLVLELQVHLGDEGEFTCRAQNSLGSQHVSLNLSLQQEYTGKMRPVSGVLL
T3 sequence (chain, as listed by the source limits assumed): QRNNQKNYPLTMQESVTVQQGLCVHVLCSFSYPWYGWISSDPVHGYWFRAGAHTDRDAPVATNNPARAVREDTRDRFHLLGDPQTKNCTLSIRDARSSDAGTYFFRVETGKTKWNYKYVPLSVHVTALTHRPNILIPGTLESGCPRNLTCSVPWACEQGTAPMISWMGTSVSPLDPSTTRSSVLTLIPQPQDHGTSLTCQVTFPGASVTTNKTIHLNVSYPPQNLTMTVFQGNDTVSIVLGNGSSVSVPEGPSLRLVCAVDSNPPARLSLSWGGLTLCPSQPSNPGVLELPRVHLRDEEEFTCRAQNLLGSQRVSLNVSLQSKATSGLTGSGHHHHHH
Human Siglec-9-Fc (recombinant human Siglec-9 extracellular domain Q18-G348 fused to human IgG1 Fc) (human), sequence (chain, as listed by the source limits assumed): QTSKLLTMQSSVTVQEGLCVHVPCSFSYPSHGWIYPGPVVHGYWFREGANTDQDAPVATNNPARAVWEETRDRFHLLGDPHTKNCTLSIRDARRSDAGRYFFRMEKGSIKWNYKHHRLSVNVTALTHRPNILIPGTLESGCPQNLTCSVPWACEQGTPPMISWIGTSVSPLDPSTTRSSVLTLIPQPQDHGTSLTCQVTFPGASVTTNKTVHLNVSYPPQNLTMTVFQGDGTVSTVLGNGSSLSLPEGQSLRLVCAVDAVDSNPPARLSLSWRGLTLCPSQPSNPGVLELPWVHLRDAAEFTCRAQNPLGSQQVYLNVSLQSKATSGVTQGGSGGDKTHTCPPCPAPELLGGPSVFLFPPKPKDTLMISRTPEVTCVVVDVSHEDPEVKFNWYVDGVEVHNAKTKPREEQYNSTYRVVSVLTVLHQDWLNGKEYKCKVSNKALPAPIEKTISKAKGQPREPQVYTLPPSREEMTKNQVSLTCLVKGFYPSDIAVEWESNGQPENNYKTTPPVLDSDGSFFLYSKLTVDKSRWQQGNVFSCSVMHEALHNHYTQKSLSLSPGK

binding result [1]: binds
B1: 2E23 (antibody, V domains shown)
VH: QVQLQQPGAELVKPGASVKLSCKASGYTFTSYWMHWVKQRPGQGLEWIGEINPSNGGTNYNEKFKSKATLTVDKSSSTAYMQLSSLTSEDSAVYYCTIYYGDYSYPIDYWGQGTSVTVSS
VL: QIVLTQSPAIMSASPGEKVTLTCSASSSVSSSYLYWYQQKPGSSPKLWIYSTSNLASGVPTRFSGSGSGTSYCLTISSMETEDAASYFCHQYSSYPFTFGSGTKLEIK

Kd [2]: 2.1 pM
Kd [3]: 20000 pM
Kd [4]: 6.8 pM
B2: 13J19 mouse/human chimeric antibody (human IgG4 S228P, kappa) (antibody, V domains shown)
VH: QVQLKESGPGLVAPSQSLSITCTVSGFSLTSYGVSWVRQPPGKGLEWLGVVWRDGTTNYHSALISRLSISKDNSKSQVFLKLNSLQTDDTATYYCARPYYGFFDYWGQGTTLTVSS
VL: SIVMTQTPKFLLVSAGDRVTVTCKASQSVSNAVAWYQQKPGQSPKLLIYYASNRYTGVPDRFTGSGYGTDFTFTISTVQAEDLAVYFCQQNYNSPYTFGGGTKLEIKR
notes: 13J19 is deposited as ATCC PTA-125945

Kd [2]: 2.6 pM
B3: 13H10 mouse/human chimeric antibody (human IgG4 S228P, kappa) (antibody, V domains shown)
VH: QVQLQQPGAELVKPGASVKLSCKASGYTFTSYWMYWVKQRPGQGLDLIGEINPSNGGTNYNEKFKSKATLTVDKSSGTAYMQLSSLTSEDSAVYYCAIWKDYYGISYEDWYFDVWGTGTTVTVSS
VL: DILLTQSPAILSVSPGERVSFSCRASQSIGTSIHWYQQRTNGSPRLLIKYASESISGIPSRFSGSGSGTDFTLSINSVESEDIADYYCQQSNSWPLTFGAGTKLELKR
notes: 13H10 is deposited as ATCC PTA-125944
binding result [5]: no binding (tested: analyte titrated from 100 nM to 1.56 nM)
binding result [6]: no binding (tested: analyte titrated from 100 nM to 1.56 nM)
